These results are taken from PMC5537066, “Dimerization facilitates the conformational transitions for bacterial phosphotransferase enzyme I autophosphorylation in an allosteric manner” (FEBS Open Bio, 2017).

Some results are limits rather than exact numbers.

Data set [1] deals with the molecule itself. In words: SEC-MALS; 200 uM protein injected on a WTC-0303 column, buffer A with 10 mM PEP, 25 °C; dimer to monomers.
Data set [2] deals with the molecule itself. The experiment in a line: SEC-MALS; 200 uM protein injected on a WTC-0303 column, buffer A (20 mM Tris/HCl pH 7.4, 100 mM NaCl, 2 mM β-mercaptoethanol, 4 mM MgCl2), 25 °C, without PEP; 50 uM elution concentration; KD (dimer to monomers) estimated from the dimer fraction, semiquantitative.

B1: Enzyme I with the H189A and G356S mutations, EIA(G356S) (enzyme)
chain: not shown
notes: Enzyme I (EI) of the bacterial phosphotransferase system, E. coli, full length EI(1-575), with H189A and G356S; also called EI(G356S); source: E. coli BL21star (DE3), purified (DEAE or HisTrap, Superdex, monoQ)
For orientation: stoichiometry N means the number of molecules, sites or subunits per partner or assembly. The Kd is the equilibrium constant for the complex coming apart. As for B1, in data set [1], the percent dimer is above 90% and the “stoichiometry N” value came to 2. Also, the dissociation constant (Kd) in data set [2] is around 30 µM.

B2: C-terminal domain of enzyme I, EIC(231-575) (domain or fragment)
chain: not shown
notes: C-terminal dimerization domain (EIC) of enzyme I, E. coli, residues 231-575, includes part of the connecting helix 231-260; source: E. coli BL21star (DE3), purified (DEAE or HisTrap, Superdex, monoQ)
Regarding B2, in data set [2], the “stoichiometry N” value is 2.

B3: Enzyme I (EI) with the active site H189A mutation, EI(1-575, H189A) (enzyme)
chain: not shown
notes: Enzyme I (EI) of the bacterial phosphotransferase system, E. coli, full length EI(1-575), with H189A; also called EIA; EI(H189A); source: E. coli BL21star (DE3), purified (DEAE or HisTrap, Superdex, monoQ)
With B3, the percent dimer in data set [1] was above 90%. Also, in data set [2], the dissociation constant (Kd) is around 0.4 µM and the “stoichiometry N” value is 2.

B4: C-terminal domain of enzyme I with the G356S mutation, EIC(G356S) (domain or fragment)
chain: not shown
notes: C-terminal dimerization domain (EIC) of enzyme I, E. coli, residues 231-575, with G356S; also called EIC(G365S) (misprint in the text); source: E. coli BL21star (DE3), purified (DEAE or HisTrap, Superdex, monoQ)
Take B4: the percent dimer in data set [1] was around 80%. In addition, in data set [2], the dissociation constant Kd is at least 5 µM and the “stoichiometry N” value is 2.
